{"source": "patent US20180333491A1", "about": "(Sinotau Pharmaceuticals Group, priority 2015, published 2018)", "key": {"[1]": {"target": "T1, DcR2 (recombinant human TRAIL R4/TNFRSF10D) (Homo sapiens, UniProt Q9UBN6)", "T1 construct": "His; purchased Sino Biological Lot: LC06JU1502", "T1 sequence (Q9UBN6 56-386)": "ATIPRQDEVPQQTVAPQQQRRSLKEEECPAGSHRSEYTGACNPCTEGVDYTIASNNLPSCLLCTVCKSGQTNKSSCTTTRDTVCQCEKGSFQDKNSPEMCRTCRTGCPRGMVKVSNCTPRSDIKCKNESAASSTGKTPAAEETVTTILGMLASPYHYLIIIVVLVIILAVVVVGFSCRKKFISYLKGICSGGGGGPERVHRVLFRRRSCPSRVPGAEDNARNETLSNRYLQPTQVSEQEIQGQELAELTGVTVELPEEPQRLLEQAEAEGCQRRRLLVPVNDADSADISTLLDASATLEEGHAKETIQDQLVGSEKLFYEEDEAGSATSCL", "assay": "CLEIA binding specificity", "conditions": "DcR2-His coated; antibody 200, 40 and 8 ng/mL", "description": "(§1) The binding specificity of HuCTB006 was evaluated by chemiluminescent enzyme immunoassay (CLEIA).\n(§2) HuCTB006 was diluted into 200, 40 and 8 ng/mL and then added to the wells. After 1 hour incubation in 37° C., the plate was washed. The binding of HuCTB006 with immobilized antigens was detected with HRP labeled secondary antibody and a substrate solution."}, "[2]": {"target": "T2, OPG (recombinant human osteroprotegerin/TNFRSF11B) (Homo sapiens, UniProt O00300)", "T2 construct": "His; purchased Wuxi Pharmatech Co. Ltd Lot: 20120717", "T2 sequence (O00300 22-401)": "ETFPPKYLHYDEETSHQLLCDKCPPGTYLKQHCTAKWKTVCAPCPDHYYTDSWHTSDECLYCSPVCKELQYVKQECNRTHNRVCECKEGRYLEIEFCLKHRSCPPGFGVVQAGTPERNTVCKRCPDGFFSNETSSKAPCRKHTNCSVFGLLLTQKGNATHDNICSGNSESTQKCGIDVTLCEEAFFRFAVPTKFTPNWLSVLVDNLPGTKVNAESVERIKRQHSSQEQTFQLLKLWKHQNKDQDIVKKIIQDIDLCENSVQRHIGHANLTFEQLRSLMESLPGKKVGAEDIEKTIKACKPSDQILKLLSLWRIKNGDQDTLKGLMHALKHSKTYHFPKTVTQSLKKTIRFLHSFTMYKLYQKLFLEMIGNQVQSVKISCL", "assay": "CLEIA binding specificity", "conditions": "OPG-His coated; antibody 200, 40 and 8 ng/mL", "description": "as §1, §2"}}, "data": [{"substance": "HuCTB006: Monospecific humanized chimeric monoclonal antibody directed to TRAIL-R2 receptor; heavy chain SEQ ID NO: 16, light chain SEQ ID NO: 14", "values": [{"measurement": "cross-reaction with coated antigen (CLEIA)", "setting": "[1]", "result": "no cross-reaction"}, {"measurement": "cross-reaction with coated antigen (CLEIA)", "setting": "[2]", "result": "no cross-reaction"}]}]}
